# Test results published in IntAct's records for PubMed 17339482.
# B1: Complement factor H (Homo sapiens), P08603 (parent)
# chain: MRLLAKIICLMLWAICVAEDCNELPPRRNTEILTGSWSDQTYPEGTQAIYKCRPGYRSLGNVIMVCRKGEWVALNPLRKCQKRPCGHPGDTPFGTFTLTGGNVFEYGVKAVYTCNEGYQLLGEINYRECDTDGWTNDIPICEVVKCLPVTAPENGKIVSSAMEPDREYHFGQAVRFVCNSGYKIEGDEEMHCSDDGFWSKEKPKCVEISCKSPDVINGSPISQKIIYKENERFQYKCNMGYEYSERGDAVCTESGWRPLPSCEEKSCDNPYIPNGDYSPLRIKHRTGDEITYQCRNGFYPATRGNTAKCTSTGWIPAPRCTLKPCDYPDIKHGGLYHENMRRPYFPVAVGKYYSYYCDEHFETPSGSYWDHIHCTQDGWSPAVPCLRKCYFPYLENGYNQNYGRKFVQGKSIDVACHPGYALPKAQTTVTCMENGWSPTPRCIRVKTCSKSSIDIENGFISESQYTYALKEKAKYQCKLGYVTADGETSGSITCGKDGWSAQPTCIKSCDIPVFMNARTKNDFTWFKLNDTLDYECHDGYESNTGSTTGSIVCGYNGWSDLPICYERECELPKIDVHLVPDRKKDQYKVGEVLKFSCKPGFTIVGPNSVQCYHFGLSPDLPICKEQVQSCGPPPELLNGNVKEKTKEEYGHSEVVEYYCNPRFLMKGPNKIQCVDGEWTTLPVCIVEESTCGDIPELEHGWAQLSSPPYYYGDSVEFNCSESFTMIGHRSITCIHGVWTQLPQCVAIDKLKKCKSSNLIILEEHLKNKKEFDHNSNIRYRCRGKEGWIHTVCINGRWDPEVNCSMAQIQLCPPPPQIPNSHNMTTTLNYRDGEKVSVLCQENYLIQEGEEITCKDGRWQSIPLCVEKIPCSQPPQIEHGTINSSRSSQESYAHGTKLSYTCEGGFRISEENETTCYMGKWSSPPQCEGLPCKSPPEISHGVVAHMSDSYQYGEEVTYKCFEGFGIDGPAIAKCLGEKWSHPPSCIKTDCLSLPSFENAIPMGEKKDVYKAGEQVTYTCATYYKMDGASNVTCINSRWTGRPTCRDTSCVNPPTVQNAYIVSRQMSKYPSGERVRYQCRSPYEMFGDEEVMCLNGNWTEPPQCKDSTGKCGPPPPIDNGDITSFPLSVYAPASSVEYQCQNLYQLEGNKRITCRNGQWSEPPKCLHPCVISREIMENYNIALRWTAKQKLYSRTGESVEFVCKRGYRLSSRSHTLRTTCWDGKLEYPTCAKR
# partner: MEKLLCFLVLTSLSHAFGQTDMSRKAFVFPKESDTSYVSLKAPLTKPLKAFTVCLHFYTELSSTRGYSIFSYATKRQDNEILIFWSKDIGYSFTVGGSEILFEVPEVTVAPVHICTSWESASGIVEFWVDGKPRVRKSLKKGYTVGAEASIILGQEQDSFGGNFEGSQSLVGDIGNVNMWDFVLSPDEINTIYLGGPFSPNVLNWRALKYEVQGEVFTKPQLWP
# Variants of: B1
# Details: with crp_human CRP
row,effect of a mutation on the interaction,Variant
1,decreasing interaction strength,Y402H
